Residues, ends and D or L forms follow the SMILES beside them.
Legend:
HLA-DRB1*01:01 = HLA-DRB1*01:01 (Homo sapiens, UniProt P01903+P01911, A100R/D57E/F55L/F60I/F76Y/I96L/L162R/M171V/P40L/Q125E/R42F/V115G/Y59C); conditions: competitive ELISA; ratio IC50 of peptide / IC50 of reference peptide HA 306–318; lower = higher affinity; ratio 20 or less high, 20–100 moderate; three independent experiments
HLA-DRB1*04:01 = HLA-DRB1*04:01 (Homo sapiens, UniProt P01903+P01911, A100K/A169T/F76Y/I96L/K127E/L162R/M171V/N62H/P40V/Q125Y/R42H/S133A/S149N/S66Y/V115G/V209L/W38E); conditions: competitive ELISA; ratio IC50 of peptide / IC50 of reference peptide HA 306–318; lower = higher affinity; ratio 20 or less high, 20–100 moderate; three independent experiments
HLA-DRB1*12:02 = HLA-DRB1*12:02 (Homo sapiens, UniProt P01903+P01911, A100R/A169T/D57E/D86V/F55L/H45Y/I96F/K41T/L162R/M171V/P40S/Q125H/Q178H/Q39Y/Q99D/R42G/S66L/T262R/V114A/V67L/W38E/Y59H/Y61H/Y89S); assay: Peptide/HLA-DR binding, competitive ELISA; conditions: for Relative binding affinity of peptide to HLA-DR molecules DRB1*1202: ratio IC50 of peptide / IC50 of reference peptide TFR 141–155, lower = higher affinity, ratio 20 or less high, 20–100 moderate, three independent experiments
Experimental: (§1) HLA-DR heterodimers were purified from homozygous Epstein–Barr virus B-lymphoblastoid cell lines (HPA Culture Collections, Salisbury, UK) by affinity chromatography with the monomorphic HLA-DRα monoclonal antibody, L243.[29],[30] Binding of the SseB peptide panel to the HLA-DR molecules HLA-DRB1*01:01, 03:01, 04:01, 07:01, 09:01, 11:01, 12:02, 15:01, 15:02 was assessed by competitive ELISA, as previously described, using an automated workstation.[29],[30] We evaluated the peptide concentration able to prevent binding of 50% of the labelled peptide (IC50). Data were expressed as relative affinity: ratio of the IC50 of the peptide to the IC50 of the reference peptide, which is a high binder to the HLA class II molecule. Unlabelled forms of the biotinylated peptides were used as reference peptides.

HLA-DRB1*03:01 = target: T1, HLA-DRB1*03:01 (Homo sapiens, UniProt P01903+P01911, A100K/A102G/A103R/A169T/F55Y/I96L/K41T/L162R/M171V/P40S/Q125H/Q178H/Q39Y/R42S/S66N/T106N/T262R/W38E/Y61H); assay: Peptide/HLA-DR binding, competitive ELISA; conditions: ratio IC50 of peptide / IC50 of reference peptide MT2-16, lower = higher affinity, ratio 20 or less high, 20–100 moderate, three independent experiments
T1 construct: HLA-DR heterodimers were purified from homozygous Epstein–Barr virus B-lymphoblastoid cell lines; host or cells: homozygous EBV B-lymphoblastoid cell line
Experimental: as §1

HLA-DRB1*15:01 = target: T2, HLA-DRB1*15:01 (Homo sapiens, UniProt P01903+P01911); assay: Peptide/HLA-DR binding, competitive ELISA; conditions: for Relative binding affinity of peptide to HLA-DR molecules DRB1*1501: ratio IC50 of peptide / IC50 of reference peptide A3 152–166, lower = higher affinity, ratio 20 or less high, 20–100 moderate, three independent experiments
T2 construct: HLA-DR heterodimers were purified from homozygous Epstein–Barr virus B-lymphoblastoid cell lines; host or cells: homozygous EBV B-lymphoblastoid cell line
Experimental: as §1

HLA-DRB1*09:01 = target: T3, HLA-DRB1*09:01 (Homo sapiens, UniProt P01903+P01911, A100R/A103E/D57H/D86V/F55Y/F60I/F76Y/I96F/K127E/L162R/M171V/P40D/Q125H/Q99R/R33Q/R42F/S133A/S66N/T210M/V115G/W38K/Y107V/Y59G/Y89S); assay: Peptide/HLA-DR binding, competitive ELISA; conditions: for Relative binding affinity of peptide to HLA-DR molecules DRB1*0901: ratio IC50 of peptide / IC50 of reference peptide CTP 427–441, lower = higher affinity, ratio 20 or less high, 20–100 moderate, three independent experiments
T3 construct: HLA-DR heterodimers were purified from homozygous Epstein–Barr virus B-lymphoblastoid cell lines; host or cells: homozygous EBV B-lymphoblastoid cell line
Experimental: as §1

HLA-DRB1*15:02 = target: T4, HLA-DRB1*15:02 (Homo sapiens, UniProt P01903+P01911, V115G); assay: Peptide/HLA-DR binding, competitive ELISA; conditions: for Relative binding affinity of peptide to HLA-DR molecules DRB1*1502: ratio IC50 of peptide / IC50 of reference peptide TFR 607–620, lower = higher affinity, ratio 20 or less high, 20–100 moderate, three independent experiments
T4 construct: HLA-DR heterodimers were purified from homozygous Epstein–Barr virus B-lymphoblastoid cell lines; host or cells: homozygous EBV B-lymphoblastoid cell line
Experimental: as §1

HLA-DRB1*07:01 = HLA-DRB1*07:01 (Homo sapiens, UniProt P01903+P01911, A100R/A102G/A103Q/D57E/D86V/E43K/F76Y/K127E/L162R/M171V/P40G/Q125H/Q99D/R33Q/R42Y/R54Q/S133A/S66F/T210M/V115G/Y107V/Y59L/Y89S); conditions: competitive ELISA; ratio IC50 of peptide / IC50 of reference peptide HA 306–318; lower = higher affinity; ratio 20 or less high, 20–100 moderate; three independent experiments
HLA-DRB1*11:01 = HLA-DRB1*11:01 (Homo sapiens, UniProt P01903+P01911, A100R/A169T/A87E/I96F/K41T/L162R/M171V/P40S/Q125H/Q178H/Q39Y/Q99D/R42S/S66Y/T262R/V115G/W38E); conditions: competitive ELISA; ratio IC50 of peptide / IC50 of reference peptide HA 306–318; lower = higher affinity; ratio 20 or less high, 20–100 moderate; three independent experiments

Row | Molecule | Relative binding affinity of peptide to HLA-DR molecules DRB1*0101 (HLA-DRB1*01:01) | Relative binding affinity of peptide to HLA-DR molecules DRB1*0401 (HLA-DRB1*04:01) | Relative binding affinity of peptide to HLA-DR molecules DRB1*1202 (HLA-DRB1*12:02) | Relative binding affinity of peptide to HLA-DR molecules DRB1*0301 (HLA-DRB1*03:01) | Relative binding affinity of peptide to HLA-DR molecules DRB1*1501 (HLA-DRB1*15:01) | Relative binding affinity of peptide to HLA-DR molecules DRB1*0901 (HLA-DRB1*09:01) | Relative binding affinity of peptide to HLA-DR molecules DRB1*1502 (HLA-DRB1*15:02) | Relative binding affinity of peptide to HLA-DR molecules DRB1*0701 (HLA-DRB1*07:01) | Relative binding affinity of peptide to HLA-DR molecules DRB1*1101 (HLA-DRB1*11:01) | IC50 (HLA-DRB1*15:01; DRB1*15:01, unlabelled form of the biotinylated peptide, read-out: IC50 of reference peptide) [nM] | IC50 (HLA-DRB1*09:01; DRB1*0901, unlabelled form of the biotinylated peptide, read-out: IC50 of reference peptide) [nM] | IC50 (HLA-DRB1*12:02; DRB1*1202, unlabelled form of the biotinylated peptide, read-out: IC50 of reference peptide) [nM] | IC50 (HLA-DRB1*15:02; DRB1*15:02, unlabelled form of the biotinylated peptide, read-out: IC50 of reference peptide) [nM]
1 | 3: SseB overlapping library peptide, residues 21–40 (GVSNADTGSQDDLSQQNPFA) [Peptide 3] | > 4149 | > 145 | > 136 | > 119 | > 270 | > 689 | > 3 333 | > 336 |  |  |  |  | 
2 | 4: SseB overlapping library peptide, residues 31–50 (DDLSQQNPFAEGYGVLLILL) [Peptide 4] | 22 | > 145 | > 136 | > 119 | 10 | 28 | 55 | 6 |  |  |  |  | 
3 | 5: SseB overlapping library peptide, residues 41–60 (EGYGVLLILLMVIQAIANNK) [Peptide 5] | > 4149 | > 145 | > 136 | > 119 | > 270 | > 689 | > 3 333 | > 336 | > 278 |  |  |  | 
4 | 6: SseB overlapping library peptide, residues 51–70 (MVIQAIANNKFIEVQKNAER) [Peptide 6] | 235 | 6 | 2 | > 119 | 1 | > 689 | 577 | 2 | 8 |  |  |  | 
5 | 7: SseB overlapping library peptide, residues 61–80 (FIEVQKNAERARNTQEKSNE) [Peptide 7] |  | 109 | > 136 | 89 | 211 | > 689 | > 3 333 | > 336 | > 278 |  |  |  | 
6 | 8: SseB overlapping library peptide, residues 71–90 (ARNTQEKSNEMDEVIAKAAK) [Peptide 8] | > 4149 | > 145 | > 136 | > 119 | > 270 | > 689 | > 3 333 | > 336 | > 278 |  |  |  | 
7 | 9: SseB overlapping library peptide, residues 81–100 (MDEVIAKAAKGDAKTKEEVP) [Peptide 9] | 1508 | > 145 | > 136 | 41 | 200 | 626 | > 3 333 | > 336 | 8 |  |  |  | 
8 | CC(C)C[C@H](NC(=O)[C@H](Cc1ccc(O)cc1)NC(=O)[C@H](C)NC(=O)[C@H](CCCNC(=N)N)NC(=O)[C@H](CC(C)C)NC(=O)[C@H](CCC(N)=O)NC(=O)[C@H](CCC(=O)O)NC(=O)[C@H](C)NC(=O)[C@@H](N)CCC(=O)O)C(=O)N[C@@H](CC(=O)O)C(=O)NCC(=O)N[C@H](C(=O)NCC(=O)N[C@H](C(=O)N[C@@H](CCC(=O)O)C(=O)O)C(C)C)[C@@H](C)O [A3 152–166, reference compound] |  |  |  |  |  |  |  |  |  | 37 |  |  | 
9 | CC[C@H](C)[C@H](NC(=O)[C@H](CCCNC(=N)N)NC(=O)[C@H](CO)NC(=O)[C@@H](NC(=O)[C@H](C)NC(=O)[C@@H]1CCCN1C(=O)[C@H](CC(N)=O)NC(=O)[C@H](Cc1ccc(O)cc1)NC(=O)[C@H](Cc1ccccc1)NC(=O)CNC(=O)[C@H](Cc1c[nH]cn1)NC(=O)[C@@H](N)C(C)C)C(C)C)C(=O)N[C@H](C(=O)N[C@@H](CCC(=O)O)C(=O)N[C@@H](C)C(=O)O)C(C)C [CTP 427–441, reference compound] (H-VHGFYNPAVSRIVEA-OH) |  |  |  |  |  |  |  |  |  |  | 15 |  | 
10 | CC[C@H](C)[C@H](NC(=O)[C@@H](NC(=O)CNC(=O)[C@@H](N)[C@@H](C)O)[C@@H](C)O)C(=O)N[C@@H](CCCCN)C(=O)N[C@@H](CC(C)C)C(=O)N[C@@H](CC(C)C)C(=O)N[C@@H](CC(N)=O)C(=O)N[C@@H](CCC(=O)O)C(=O)N[C@@H](CC(N)=O)C(=O)N[C@@H](CO)C(=O)N[C@@H](Cc1ccc(O)cc1)C(=O)N[C@H](C(=O)N1CCC[C@H]1C(=O)N[C@@H](CCCNC(=N)N)C(=O)O)C(C)C [TFR 141–155, reference compound] (H-TGTIKLLNENSYVPR-OH) |  |  |  |  |  |  |  |  |  |  |  | 73 | 
11 | CC(C)C[C@H](NC(=O)[C@H](CC(C)C)NC(=O)[C@H](CCC(N)=O)NC(=O)[C@H](CO)NC(=O)[C@H](CC(N)=O)NC(=O)[C@H](Cc1ccc(O)cc1)NC(=O)[C@H](CCCNC(=N)N)NC(=O)[C@H](CCC(=O)O)NC(=O)[C@H](Cc1ccc(O)cc1)NC(=O)[C@H](CC(=O)O)NC(=O)[C@H](CC(C)C)NC(=O)[C@H](CC(N)=O)NC(=O)[C@@H](N)CC(C)C)C(=O)N[C@@H](CO)C(=O)O [TFR 607–620, reference compound] (H-LNLDYERYNSQLLS-OH) |  |  |  |  |  |  |  |  |  |  |  |  | 3

— article PMC4212957, “The serodominant secreted effector protein of Salmonella, SseB, is a strong CD4 antigen containing an immunodominant epitope presented by diverse HLA class II alleles” (Immunology, 2014)
